Laboratory results published in patent US20190071490A1, “Preventing Post-Ictal Headaches” (Beth Israel Deaconess Medical Center, Inc., priority 2017, published 2019).

Legend:
human α-CGRP = biological target: T1, human α-CGRP (Homo sapiens, UniProt P06881); assay: Biacore SPR affinity of Fab fragments to N-biotinylated human α-CGRP on SA chip; type: binding; details: 37° C., screening mode except underlined values
T1 construct: 1-37 (WT); purchased GenScript Corporation or Global Peptide Services
T1 sequence (P06881 83-119 limits assumed): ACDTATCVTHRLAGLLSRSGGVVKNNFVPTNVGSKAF
Procedure: (§1) Affinity determination of the Fabs. Affinities of the anti-CGRP monoclonal antibodies were determined at either 25° C. or 37° C. using the BIACORE3000™ surface plasmon resonance (SPR) system (Biacore, INC, Piscataway N.J.) with the manufacture's own running buffer, HBS-EP (10 mM HEPES pH 7.4, 150 mM NaCl, 3 mM EDTA, 0.005% v/v polysorbate P20). Affinity was determined by capturing N-terminally biotinylated CGRP peptides (custom ordered from GenScript Corporation, New Jersey or Global Peptide Services, Colorado) via pre-immobilized streptavidin on SA chip and measuring binding kinetics of antibody Fab titrated across the CGRP surface. Biotinylated CGRP was diluted into HBS-EP and injected over the chip at a concentration of less than 0.001 mg/ml. Using variable flow time across the individual chip channels, two ranges of antigen density were achieved: <50 response units (RU) for detailed kinetic studies and about 800 RU for concentration studies and screening. […] After each binding cycle, surfaces were regenerated with 25 mM NaOH in 25% v/v ethanol, which was tolerated over hundreds of cycles. Kinetic association rate (kon) and dissociation rate (koff) were obtained simultaneously by fitting the data to a 1:1 Langmuir binding model (Karlsson et al. (1994). Methods Enzymology 6. 99-110) using the BIAevaluation program. Global equilibrium dissociation constants (KD) or “affinities” were calculated from the ratio KD=koff/kon.
(§2) Biacore assay for affinity determination. […] All Biacore assays were conducted in HBS-EP running buffer (10 mM HEPES pH 7.4, 150 mM NaCl, 3 mM EDTA, 0.005% v/v polysorbate P20). CGRP surfaces were prepared by diluting the N-biotinylated CGRP to a concentration of less than 0.001 mg/mL into HBS-EP buffer and injecting it across the SA sensor chip using variable contact times. Low capacity surfaces, corresponding to capture levels <50 response units (RU) were used for high-resolution kinetic studies, whereas high capacity surfaces (about 800 RU of captured CGRP) were used for concentration studies, screening, and solution affinity determinations. […] Samples were typically injected for 1 minute at 100 μL/min and dissociation times of at least 10 minutes were allowed. After each binding cycle, surfaces were regenerated with 25 mM NaOH in 25% v/v ethanol, which was tolerated over hundreds of cycles. An entire titration series (typically generated in duplicate) was fit globally to a 1:1 Langmuir binding model using the BIAevaluation program. This returned a unique pair of association and dissociation kinetic rate constants (respectively, kon and koff) for each binding interaction, whose ratio gave the equilibrium dissociation constant (KD=koff/kon).
(§3) High-resolution analysis of binding interactions with extremely slow off rates. […] The protocol described above was used with the following modifications. The association rate constant (kon) was determined by injecting a 2-fold titration series (in duplicate) spanning 550 nM-1 nM for 30 seconds at 100 μL/min and allowing only a 30 second dissociation phase. The dissociation rate constant (koff) was determined by injecting three concentrations (high, medium, and low) of the same titration series in duplicate for 30 seconds and allowing a 2-hour dissociation phase. The affinity (KD) of each interaction was obtained by combining the kon and koff values obtained in both types of experiments, as shown in Table 4.

rat α-CGRP = biological target: T2, rat α-CGRP (Rattus norvegicus, UniProt P01256); assay: Biacore SPR affinity of Fab fragments to N-biotinylated rat α-CGRP on SA chip; type: binding; details: 37° C., screening mode except underlined values
T2 construct: rat α (1-37); purchased GenScript Corporation or Global Peptide Services
T2 sequence (P01256 83-119 limits assumed): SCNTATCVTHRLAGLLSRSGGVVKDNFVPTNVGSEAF
Procedure: as §1, §2, §3

B1: M65: G1 variant; L1 R28N T30G; L2 G50A L56I; H2 E54K A57C; HC-FW3 L99T A100V (antibody, V domains shown)
VH: EVQLVESGGGLVQPGGSLRLSCAASGFTFSNYWISWVRQAPGKGLEWVAEIRSKSDCSATHYAEAVKGRFTISRDNAKNSLYLQMNSLRAEDTAVYYCTVYFDYGLAIQNYWGQGTLVTVSS
VL: EIVLTQSPATLSLSPGERATLSCKASKNVGTYVSWYQQKPGQAPRLLIYAASNRYIGIPARFSGSGSGTDFTLTISSLEPEDFAVYYCSQSYNYPYTFGQGTKLEIK
- α-human koff (human α-CGRP): 0.000803 s⁻¹
- α-rat koff (rat α-CGRP): 0.00407 s⁻¹

B2: M66: G1 variant; L1 R28N T30G; L2 L561; H2 E54K A57E; HC-FW3 L99T A100V (antibody, V domains shown)
VH: EVQLVESGGGLVQPGGSLRLSCAASGFTFSNYWISWVRQAPGKGLEWVAEIRSKSDESATHYAEAVKGRFTISRDNAKNSLYLQMNSLRAEDTAVYYCTVYFDYGLAIQNYWGQGTLVTVSS
VL: EIVLTQSPATLSLSPGERATLSCKASKNVGTYVSWYQQKPGQAPRLLIYGASNRYIGIPARFSGSGSGTDFTLTISSLEPEDFAVYYCSQSYNYPYTFGQGTKLEIK
- α-human koff (human α-CGRP): 0.00052 s⁻¹
- α-rat koff (rat α-CGRP): 0.00511 s⁻¹

B3: M67: G1 variant; L1 R28N T30G; L2 L561; H2 E54K A57F; HC-FW3 L99T A100V (antibody, V domains shown)
VH: EVQLVESGGGLVQPGGSLRLSCAASGFTFSNYWISWVRQAPGKGLEWVAEIRSKSDFSATHYAEAVKGRFTISRDNAKNSLYLQMNSLRAEDTAVYYCTVYFDYGLAIQNYWGQGTLVTVSS
VL: EIVLTQSPATLSLSPGERATLSCKASKNVGTYVSWYQQKPGQAPRLLIYGASNRYIGIPARFSGSGSGTDFTLTISSLEPEDFAVYYCSQSYNYPYTFGQGTKLEIK
- α-human koff (human α-CGRP): 0.00082 s⁻¹
- α-rat koff (rat α-CGRP): 0.00171 s⁻¹

B4: M68: G1 variant; L1 R28N T30G; L2 L561; H2 E54K A57N S58D E64D; HC-FW3 L99T A100V (antibody, V domains shown)
VH: EVQLVESGGGLVQPGGSLRLSCAASGFTFSNYWISWVRQAPGKGLEWVAEIRSKSDNDATHYADAVKGRFTISRDNAKNSLYLQMNSLRAEDTAVYYCTVYFDYGLAIQNYWGQGTLVTVSS
VL: EIVLTQSPATLSLSPGERATLSCKASKNVGTYVSWYQQKPGQAPRLLIYGASNRYIGIPARFSGSGSGTDFTLTISSLEPEDFAVYYCSQSYNYPYTFGQGTKLEIK
- α-human koff (human α-CGRP): 0.000428 s⁻¹
- α-rat koff (rat α-CGRP): 0.00676 s⁻¹

B5: M69: G1 variant; L1 R28N T30G; L2 L561; H2 E54K A57N S58E; HC-FW3 L99T A100V (antibody, V domains shown)
VH: EVQLVESGGGLVQPGGSLRLSCAASGFTFSNYWISWVRQAPGKGLEWVAEIRSKSDNEATHYAEAVKGRFTISRDNAKNSLYLQMNSLRAEDTAVYYCTVYFDYGLAIQNYWGQGTLVTVSS
VL: EIVLTQSPATLSLSPGERATLSCKASKNVGTYVSWYQQKPGQAPRLLIYGASNRYIGIPARFSGSGSGTDFTLTISSLEPEDFAVYYCSQSYNYPYTFGQGTKLEIK
- α-human koff (human α-CGRP): 0.000733 s⁻¹
- α-rat koff (rat α-CGRP): 0.00181 s⁻¹

B6: M70: G1 variant; L1 R28N T30G; L2 L561; H2 E54K A57S; HC-FW3 L99T A100V (antibody, V domains shown)
VH: EVQLVESGGGLVQPGGSLRLSCAASGFTFSNYWISWVRQAPGKGLEWVAEIRSKSDSSATHYAEAVKGRFTISRDNAKNSLYLQMNSLRAEDTAVYYCTVYFDYGLAIQNYWGQGTLVTVSS
VL: EIVLTQSPATLSLSPGERATLSCKASKNVGTYVSWYQQKPGQAPRLLIYGASNRYIGIPARFSGSGSGTDFTLTISSLEPEDFAVYYCSQSYNYPYTFGQGTKLEIK
- α-human koff (human α-CGRP): 0.000559 s⁻¹
- α-rat koff (rat α-CGRP): 0.00607 s⁻¹

B7: M71: G1 variant; L1 R28N T30G; L2 L561; H2 E54K A57Y; HC-FW3 L99T A100V (antibody, V domains shown)
VH: EVQLVESGGGLVQPGGSLRLSCAASGFTFSNYWISWVRQAPGKGLEWVAEIRSKSDYSATHYAEAVKGRFTISRDNAKNSLYLQMNSLRAEDTAVYYCTVYFDYGLAIQNYWGQGTLVTVSS
VL: EIVLTQSPATLSLSPGERATLSCKASKNVGTYVSWYQQKPGQAPRLLIYGASNRYIGIPARFSGSGSGTDFTLTISSLEPEDFAVYYCSQSYNYPYTFGQGTKLEIK
- α-human koff (human α-CGRP): 0.00128 s⁻¹
- α-rat koff (rat α-CGRP): 0.00212 s⁻¹

B8: M72: G1 variant; L1 R28N T30G; L2 L56S; H2 E54K; HC-FW3 L99T A100V (antibody, V domains shown)
VH: EVQLVESGGGLVQPGGSLRLSCAASGFTFSNYWISWVRQAPGKGLEWVAEIRSKSDASATHYAEAVKGRFTISRDNAKNSLYLQMNSLRAEDTAVYYCTVYFDYGLAIQNYWGQGTLVTVSS
VL: EIVLTQSPATLSLSPGERATLSCKASKNVGTYVSWYQQKPGQAPRLLIYGASNRYSGIPARFSGSGSGTDFTLTISSLEPEDFAVYYCSQSYNYPYTFGQGTKLEIK
- α-human koff (human α-CGRP): 0.0004 s⁻¹
- α-rat koff (rat α-CGRP): 0.00395 s⁻¹

B9: M73: G1 variant; L1 R28N T30G; L2 L56S; H2 E54K A57N S58Y E64D; HC-FW3 L99T A100V (antibody, V domains shown)
VH: EVQLVESGGGLVQPGGSLRLSCAASGFTFSNYWISWVRQAPGKGLEWVAEIRSKSDNYATHYADAVKGRFTISRDNAKNSLYLQMNSLRAEDTAVYYCTVYFDYGLAIQNYWGQGTLVTVSS
VL: EIVLTQSPATLSLSPGERATLSCKASKNVGTYVSWYQQKPGQAPRLLIYGASNRYSGIPARFSGSGSGTDFTLTISSLEPEDFAVYYCSQSYNYPYTFGQGTKLEIK
- α-human koff (human α-CGRP): 0.000255 s⁻¹
- α-rat koff (rat α-CGRP): 0.003 s⁻¹

B10: M74: G1 variant; L1 R28N T30G; L2 L56S; H2 E54K A57S; HC-FW3 L99T A100V (antibody, V domains shown)
VH: EVQLVESGGGLVQPGGSLRLSCAASGFTFSNYWISWVRQAPGKGLEWVAEIRSKSDSSATHYAEAVKGRFTISRDNAKNSLYLQMNSLRAEDTAVYYCTVYFDYGLAIQNYWGQGTLVTVSS
VL: EIVLTQSPATLSLSPGERATLSCKASKNVGTYVSWYQQKPGQAPRLLIYGASNRYSGIPARFSGSGSGTDFTLTISSLEPEDFAVYYCSQSYNYPYTFGQGTKLEIK
- α-human koff (human α-CGRP): 0.000597 s⁻¹
- α-rat koff (rat α-CGRP): 0.00603 s⁻¹

B11: M75: G1 variant; L1 R28N T30G; L2 L56S; H2 E54K A57V; HC-FW3 L99T A100V (antibody, V domains shown)
VH: EVQLVESGGGLVQPGGSLRLSCAASGFTFSNYWISWVRQAPGKGLEWVAEIRSKSDVSATHYAEAVKGRFTISRDNAKNSLYLQMNSLRAEDTAVYYCTVYFDYGLAIQNYWGQGTLVTVSS
VL: EIVLTQSPATLSLSPGERATLSCKASKNVGTYVSWYQQKPGQAPRLLIYGASNRYSGIPARFSGSGSGTDFTLTISSLEPEDFAVYYCSQSYNYPYTFGQGTKLEIK
- α-human koff (human α-CGRP): 0.00116 s⁻¹
- α-rat koff (rat α-CGRP): 0.0187 s⁻¹

B12: M76: G1 variant; L1 R28N T30S; L2 G50A L56T; H2 A57G; HC-FW3 L99T A100V (antibody, V domains shown)
VH: EVQLVESGGGLVQPGGSLRLSCAASGFTFSNYWISWVRQAPGKGLEWVAEIRSESDGSATHYAEAVKGRFTISRDNAKNSLYLQMNSLRAEDTAVYYCTVYFDYGLAIQNYWGQGTLVTVSS
VL: EIVLTQSPATLSLSPGERATLSCKASKNVSTYVSWYQQKPGQAPRLLIYAASNRYTGIPARFSGSGSGTDFTLTISSLEPEDFAVYYCSQSYNYPYTFGQGTKLEIK
- α-human koff (human α-CGRP): 0.000364 s⁻¹
- α-rat koff (rat α-CGRP): 0.00116 s⁻¹
